Targets include MAGI2_5, Q86UL8; Inadl_3, Q8NI35; DLG1_3, Q12959; DLG1_1, Q12959; Inadl_9, Q8NI35; DLG4_1, P78352; MAGI1_2, Q96QZ7; Inadl_4, Q8NI35.
What all share (assay): holdup assay
Common to all, as to design: key: below the threshold = too weak to quantify, mostly under pKd 3.1 to 4

The target of a further assay is T1, APBA2_2, Q99767.
T1 sequence (Q99767 654-744, limits assumed, looked up): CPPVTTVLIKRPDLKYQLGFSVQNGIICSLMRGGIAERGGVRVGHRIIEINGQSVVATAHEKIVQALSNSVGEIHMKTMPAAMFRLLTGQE

The target in another assay is T2, TX1BP3, O14907.
T2 sequence (O14907 10-122, limits assumed, looked up): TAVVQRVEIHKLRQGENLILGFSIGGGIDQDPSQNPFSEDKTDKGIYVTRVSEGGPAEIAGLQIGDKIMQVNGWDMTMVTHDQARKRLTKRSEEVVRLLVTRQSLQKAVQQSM

The target of another assay is T3, TIAM2, Q8IVF5.
T3 sequence (Q8IVF5 885-986, limits assumed, looked up): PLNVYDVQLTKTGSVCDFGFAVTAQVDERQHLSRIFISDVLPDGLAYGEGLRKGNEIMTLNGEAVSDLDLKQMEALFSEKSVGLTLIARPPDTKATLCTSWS

The target of the next assay is T4, LIN7C, Q9NUP9.
T4 sequence (Q9NUP9 88-185, limits assumed, looked up): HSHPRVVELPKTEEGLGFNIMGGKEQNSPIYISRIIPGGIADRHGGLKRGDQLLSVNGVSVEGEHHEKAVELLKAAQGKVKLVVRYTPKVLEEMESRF

Another assay addresses T5, DFNB31_3, Q9P202.
T5 sequence (Q9P202 811-907, limits assumed, looked up): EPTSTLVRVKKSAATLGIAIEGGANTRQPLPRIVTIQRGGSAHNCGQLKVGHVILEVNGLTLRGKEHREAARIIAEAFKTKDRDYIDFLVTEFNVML

The next assay has as its target T6, GRIP1_2, Q9Y3R0.
T6 sequence (Q9Y3R0 145-248, limits assumed, looked up): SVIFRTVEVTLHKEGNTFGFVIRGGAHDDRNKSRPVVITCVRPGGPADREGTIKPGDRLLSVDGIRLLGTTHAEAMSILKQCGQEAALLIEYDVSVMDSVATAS

A further assay has as its target T7, PDZD7_3, Q9H5P4.
T7 sequence (Q9H5P4 857-944, limits assumed, looked up): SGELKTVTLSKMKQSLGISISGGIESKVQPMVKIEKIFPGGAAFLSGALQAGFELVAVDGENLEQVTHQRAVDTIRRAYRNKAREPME

Another assay addresses T8, RAPGEF6, Q8TEU7.
T8 sequence (Q8TEU7 525-625, limits assumed, looked up): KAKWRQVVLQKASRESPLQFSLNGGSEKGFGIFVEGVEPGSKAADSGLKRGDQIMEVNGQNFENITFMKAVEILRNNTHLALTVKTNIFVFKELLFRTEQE

Another assay concerns the target T9, HTRA4, P83105.
T9 sequence (P83105 378-476, limits assumed, looked up): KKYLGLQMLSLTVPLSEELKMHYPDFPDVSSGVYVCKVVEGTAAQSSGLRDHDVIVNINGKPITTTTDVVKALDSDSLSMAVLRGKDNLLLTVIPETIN

A further assay concerns the target T10, GRIP1_3, Q9Y3R0.
T10 sequence (Q9Y3R0 247-346, limits assumed, looked up): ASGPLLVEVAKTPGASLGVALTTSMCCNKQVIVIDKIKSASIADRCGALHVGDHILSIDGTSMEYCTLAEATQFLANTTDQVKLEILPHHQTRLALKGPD

A further assay deals with T11, APBA2_1, Q99767.
T11 sequence (Q99767 563-664, limits assumed, looked up): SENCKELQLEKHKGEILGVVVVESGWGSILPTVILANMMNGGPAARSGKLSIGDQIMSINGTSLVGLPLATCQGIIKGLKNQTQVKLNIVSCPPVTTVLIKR

The target of the next assay is T12, APBA1_1, Q02410.
T12 sequence (Q02410 651-752, limits assumed, looked up): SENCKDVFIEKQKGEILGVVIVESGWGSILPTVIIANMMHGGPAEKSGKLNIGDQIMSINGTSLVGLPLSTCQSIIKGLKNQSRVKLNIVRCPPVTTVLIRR

The target of the next assay is T13, SNTA1, Q13424.
T13 sequence (Q13424 82-180, limits assumed, looked up): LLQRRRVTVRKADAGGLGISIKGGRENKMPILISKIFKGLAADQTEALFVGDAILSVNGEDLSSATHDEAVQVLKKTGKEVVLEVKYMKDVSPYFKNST
Conditions: plain residues with an end cap or a label only (N-terminal biotin on a linker: ttds).

The target in another assay is T14, SYNJ2BP, P57105.
T14 sequence (P57105 8-110, limits assumed, looked up): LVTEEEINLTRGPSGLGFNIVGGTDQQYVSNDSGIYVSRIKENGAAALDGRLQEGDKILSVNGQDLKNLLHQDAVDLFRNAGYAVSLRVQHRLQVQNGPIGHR
Conditions: plain residues with an end cap or a label only (N-terminal biotin on a linker: ttds).

Setting [1] is: plain residues with an end cap or a label only (N-terminal biotin on a linker: ahx).
[2] abbreviates: plain residues with an end cap or a label only (N-terminal biotin on a linker: ttds).

Sequence of MAGI2_5, Q86UL8 (Q86UL8 915-1017): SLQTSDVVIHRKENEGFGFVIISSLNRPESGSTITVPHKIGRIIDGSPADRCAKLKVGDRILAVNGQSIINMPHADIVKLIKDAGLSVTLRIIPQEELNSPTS
Sequence of Inadl_9, Q8NI35 (Q8NI35 1530-1615): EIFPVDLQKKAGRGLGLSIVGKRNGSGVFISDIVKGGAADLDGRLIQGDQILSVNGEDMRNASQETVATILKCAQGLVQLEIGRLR
Sequence of MAGI1_2, Q96QZ7 (Q96QZ7 456-580): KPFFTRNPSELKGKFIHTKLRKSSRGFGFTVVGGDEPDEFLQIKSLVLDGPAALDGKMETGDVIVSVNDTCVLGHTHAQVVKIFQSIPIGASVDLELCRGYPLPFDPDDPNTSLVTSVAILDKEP
Sequence of Inadl_3, Q8NI35 (Q8NI35 359-469): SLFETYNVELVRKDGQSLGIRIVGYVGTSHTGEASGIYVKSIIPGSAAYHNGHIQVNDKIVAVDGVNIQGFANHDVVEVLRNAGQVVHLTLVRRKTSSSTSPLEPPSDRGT
Sequence of DLG4_1, P78352 (P78352 62-152): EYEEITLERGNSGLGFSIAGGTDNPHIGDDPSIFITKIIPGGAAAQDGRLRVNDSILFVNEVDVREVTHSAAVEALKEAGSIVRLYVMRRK
Sequence of Inadl_4, Q8NI35 (Q8NI35 547-651): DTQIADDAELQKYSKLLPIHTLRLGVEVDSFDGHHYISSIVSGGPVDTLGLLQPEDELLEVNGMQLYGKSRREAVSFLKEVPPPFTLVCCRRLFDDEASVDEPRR

As a reminder, the pKd is the negative decadic logarithm of the Kd, by convention in mol/L. Consider LSDPSVSTVV [GRIN1, Q05586;Q05586-2], for which the pKd was 4.36 with MAGI2_5, Q86UL8 (setting [1]); “below the threshold” with Inadl_3, Q8NI35 (setting [1]); “below the threshold” with DLG1_3, Q12959 (setting [1]); “below the threshold” with APBA2_2, Q99767 (setting [1]); 4.06 with DLG1_1, Q12959 (setting [1]); “below the threshold” with TX1BP3, O14907 (setting [1]). Besides, the pKd entry with Inadl_9, Q8NI35 (setting [1]) is “below the threshold”; with DLG4_1, P78352 (setting [1]), 4.1; with TIAM2, Q8IVF5 (setting [1]), “below the threshold”; in the assay with LIN7C, Q9NUP9 (setting [1]) it was “below the threshold”; with DFNB31_3, Q9P202 (setting [1]), “below the threshold”; with GRIP1_2, Q9Y3R0 (setting [1]) it was “below the threshold”. The pKd with PDZD7_3, Q9H5P4 (setting [1]) was 4.54; with RAPGEF6, Q8TEU7 (setting [1]), “below the threshold”; in the assay with HTRA4, P83105 (setting [1]) it was “below the threshold”; in the assay with GRIP1_3, Q9Y3R0 (setting [1]), “below the threshold”; in the assay with MAGI1_2, Q96QZ7 (setting [1]), “below the threshold”; with Inadl_4, Q8NI35 (setting [1]) it was “below the threshold”. Also, the pKd result with APBA2_1, Q99767 (setting [1]) is on record as “below the threshold”; in the assay with APBA1_1, Q02410 (setting [1]), “below the threshold”.
PRVKPQRSKV [PPP1R13L, Q8WUF5]: the pKd entry was “below the threshold” with MAGI2_5, Q86UL8 (setting [2]); “below the threshold” in the assay with Inadl_3, Q8NI35 (setting [2]); “below the threshold” with DLG1_3, Q12959 (setting [2]); “below the threshold” with APBA2_2, Q99767 (setting [2]); “below the threshold” with DLG1_1, Q12959 (setting [2]); 3.82 in the assay with TX1BP3, O14907 (setting [2]). For the same molecule, the pKd result is “below the threshold” with Inadl_9, Q8NI35 (setting [2]); 3.54 with DLG4_1, P78352 (setting [2]); “below the threshold” in the assay with TIAM2, Q8IVF5 (setting [2]); “below the threshold” with LIN7C, Q9NUP9 (setting [2]); “below the threshold” with DFNB31_3, Q9P202 (setting [2]); “below the threshold” with GRIP1_2, Q9Y3R0 (setting [2]). Further, the negative-log Kd (pKd) with PDZD7_3, Q9H5P4 (setting [2]) was 3.67; with RAPGEF6, Q8TEU7 (setting [2]) it was “below the threshold”; in the assay with HTRA4, P83105 (setting [2]), “below the threshold”; with GRIP1_3, Q9Y3R0 (setting [2]), “below the threshold”; in the assay with MAGI1_2, Q96QZ7 (setting [2]), 3.72; in the assay with Inadl_4, Q8NI35 (setting [2]), “below the threshold”. The pKd result is “below the threshold” with SNTA1, Q13424; “below the threshold” in the assay with APBA2_1, Q99767 (setting [2]); “below the threshold” with APBA1_1, Q02410 (setting [2]); “below the threshold” with SYNJ2BP, P57105.
As to SKPTRRETEV [HPV35-E6, P27228], the pKd with MAGI2_5, Q86UL8 (setting [2]) is 4.18; in the assay with Inadl_3, Q8NI35 (setting [2]), “below the threshold”; with DLG1_3, Q12959 (setting [2]) it was 4.77; in the assay with APBA2_2, Q99767 (setting [2]) it was “below the threshold”; with DLG1_1, Q12959 (setting [2]), 5.02; with TX1BP3, O14907 (setting [2]), 4.93. The pKd entry is “below the threshold” with Inadl_9, Q8NI35 (setting [2]); 5.09 with DLG4_1, P78352 (setting [2]); “below the threshold” with TIAM2, Q8IVF5 (setting [2]); 3.76 with LIN7C, Q9NUP9 (setting [2]); “below the threshold” with DFNB31_3, Q9P202 (setting [2]); “below the threshold” in the assay with GRIP1_2, Q9Y3R0 (setting [2]). The pKd with PDZD7_3, Q9H5P4 (setting [2]) is 4.3; with RAPGEF6, Q8TEU7 (setting [2]) it was “below the threshold”; with HTRA4, P83105 (setting [2]), “below the threshold”; with GRIP1_3, Q9Y3R0 (setting [2]), “below the threshold”; with MAGI1_2, Q96QZ7 (setting [2]) it was 5.13; in the assay with Inadl_4, Q8NI35 (setting [2]), “below the threshold”. In addition, the pKd with SNTA1, Q13424 is 4.85; with APBA2_1, Q99767 (setting [2]), “below the threshold”; with APBA1_1, Q02410 (setting [2]), “below the threshold”; with SYNJ2BP, P57105, 5.69.

Values taken from paper PMC9482650, “Quantitative fragmentomics allow affinity mapping of interactomes” (Nature Communications, 2022).
